Like-named read-outs stand apart in the source and are kept apart here.
Columns and labels:
[1] = target: T1, HLA-A2.1 (Homo sapiens, UniProt P04439, D140Y/D185E/D98H/E176V/E277Q/G131W/G231S/I119V/I121R/I166T/I218V/L300P/L318F/N151K/N90K/P208A/P217A/Q86G/Q94H/R138H/R169H/T345S); format: cell-based
T1 construct: endogenous in cells; host or cells: 174CEM.T2
Method: Of all peptides a dilution of 1 mg/ml in 0.9% NaCl was made.
174CEM.T2 cells were cultured in Iscovel's modified Dulbecco's medium (Biochrom KG Seromed Berlin, Germany: F0465) supplemented with 100 IU/ml penicillin (Biocades Pharma, Leiderdorp, The Netherlands), 100 μg/ml kanamycin (Sigma St. Louis, USA:K-0254), 2 mM glutamine (ICN Biomedicals Inc. Costa Mesa, Calif., USA:15-801-55) and 10% fetal calf serum (FCS, Hyclone Laboratories Inc. Logan, Utah, USA:A-1115-L). Cells were cultured at a density of 2.5×10^5/ml during 3 days at 37° C., 5% CO2 in humified air.
174CEM.T2 cells were washed twice in culture medium without FCS and put in serum-free culture medium to a density of 2×10^6 cells/ml. Of this suspension 40 μl was put into a V bottomed 96 well plate (Greiner GmbH, Frickenhausen, Germany: 651101) together with 10 μl of the individual peptide dilutions (of 1 mg/ml). The end concentration is 200 μg/ml peptide with 8×10^4 174CEM.T2 cells. This solution was gently agitated for 3 minutes after which an incubation time of 16 hours at 37° C., 5% CO2 in humified air took place. Then cells were washed once with 100 μl 0.9% NaCl, 0.5% bovine serum albumin (Sigma St. Louis, USA: A-7409), 0.02% NaN3 (Merck Darmstadt, Germany:822335). After a centrifuge round of 1200 rpm the pellet was resuspended in 50 μl of saturating amounts of HLA-A2.1 specific mouse monoclonal antibody BB7.2 for 30 minutes at 4° C. Then cells were washed twice and incubated for 30 minutes with F(ab)2 fragments of goat anti-mouse IgG that had been conjugated with […] (Tago Inc Burlingame, Calif., USA: 4350) in a dilution of 1:40 and a total volume of 25 μl.
After the last incubation, cells were washed twice and fluorescence was measured at 488 nanometer on a FACScan flow-cytometer (Becton Dickinson, Franklin Lakes, N.J., USA).
The 174CEM.T2 cell line expresses “empty” and unstable HLA-A2.1 molecules that can be stabilized when a peptide is binding to the peptide presenting groove of these molecules. […] This leads to an increase in cell surface expression of the HLA-A2.1 molecule.
With background fluorescence level (without adding peptides) set on a Fluorescence Index level of 0, binding of a peptide was regarded positive when the level of fluorescence was ≧0.5.

[2] = tested on: HLA-A11.2; experiment: Immunochemical peptide-MHC binding assay, purified HLA-A11.2, radiolabeled probe […]; set-up: species or system human; conditions: for binding ratio to standard: IC50 of standard divided by IC50 of tested peptide, cysteines synthesized as alanine
Description: (§1) The method utilizes purified class I molecules and radiolabeled synthetic probes based on consensus peptides. Competitor peptides tested for their binding to the class I molecules compete for this binding with the radiolabeled consensus peptides. The HLA-A1, A2.1, A3.2, A11.2, and A24 molecules were isolated from the following cell lines, respectively: the EBV (Eppstein Barr Virus) transformed cell line Steinlin, the EBV transformed cell line JY, the EBV transformed cell line GM3107, the cell line BVR and the EBV transformed cell line KT3. After large scale culture, cells were lysed in NP40 (Fluka Biochemika, Buchs, Switzerland) and the lysate was passed over two pre-columns of inactivated sepharose CL 4B and Prot A Sepharose. Class I molecules were then purified from the cell lysate by affinity chromatography using Prot A Sepharose beads conjugated with B2.23.2 (anti-HLA-B and HLA-C) and anti-human HLA. The lysate was first depleted of B and C molecules by repeated passage over the B2.23.2 column.
(§2) After two days at 23° C. the percent of MHC-bound radioactivity was measured by size exclusion chromatography on a TSK2000 gel filtration as described by Sette et al. (1992).
(§3) Probe peptides were iodinated by using the Chloramine T method described by Buus et al. (1987). The sequences of the probe peptides used for the aforementioned HLA molecules were […] (SEQ ID NO:76) for A1, […] (SEQ ID NO:77) for A2.1, […] (SEQ ID NO:78) for A3.2, […] (SEQ ID NO:79) for A11.2, and […] (SEQ ID NO:80) for A24.
(§4) Each competitor peptide was tested in two to four completely independent experiments. Since cysteine containing peptides are susceptible to (air) oxidation during synthesis and handling, these peptides were synthesized with an alanine instead of a cysteine.

[3] = target: T2, HLA-A3.2 (Homo sapiens, UniProt P04439); format: binding
T2 construct: endogenous in cells; host or cells: EBV transformed cell line GM3107 (protein purified from NP40 lysate)
T2 sequence (P04439 25-365): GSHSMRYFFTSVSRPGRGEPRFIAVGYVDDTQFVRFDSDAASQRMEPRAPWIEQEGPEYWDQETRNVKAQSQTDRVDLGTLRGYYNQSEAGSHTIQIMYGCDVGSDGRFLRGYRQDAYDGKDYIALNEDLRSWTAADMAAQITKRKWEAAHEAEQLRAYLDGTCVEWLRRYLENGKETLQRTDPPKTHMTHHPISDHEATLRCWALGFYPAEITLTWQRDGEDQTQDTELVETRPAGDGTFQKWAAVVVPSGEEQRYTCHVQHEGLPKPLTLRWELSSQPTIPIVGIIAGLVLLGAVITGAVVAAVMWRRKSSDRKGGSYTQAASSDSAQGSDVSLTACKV
T2 sequence (P61769 21-119, further chain): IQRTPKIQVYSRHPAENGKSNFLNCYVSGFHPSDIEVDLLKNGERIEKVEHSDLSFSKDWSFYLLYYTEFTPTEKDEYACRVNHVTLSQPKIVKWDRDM
Description: as §1, §2, §3, §4

[4] = HPV16 peptides, 200 μg/ml peptide, 16 hours, 174CEM.T2 cells
[5] = HPV16 peptides, 200 μg/ml peptide, 16 hours, 174CEM.T2 cells, background set on 0, binding positive when ≧0.5
[6] = HLA-A3.2, IC50 of standard divided by IC50 of tested peptide, cysteines synthesized as alanine
[7] = HPV18 peptides, 200 μg/ml peptide, 16 hours, 174CEM.T2 cells
[8] = HPV18 peptides, 200 μg/ml peptide, 16 hours, 174CEM.T2 cells, background set on 0, binding positive when ≧0.5

CC[C@H](C)[C@H](NC(=O)CNC(=O)[C@H](CC(C)C)NC(=O)[C@@H](N)[C@@H](C)O)C(=O)N[C@H](C(=O)N[C@@H](CS)C(=O)N1CCC[C@H]1C(=O)N[C@H](C(=O)N[C@@H](CS)C(=O)O)[C@@H](C)CC)C(C)C [HPV16 peptide 18]
MF (mean HLA-A2.1 fluorescence) [1, 4]: 227.8 | FI (Fluorescence Index) [1, 5]: 2.5

AMFQDPQER [residues 7-15 of HPV16 protein E6]
binding ratio to standard [2]: 0.8400

AVCDKCLKF [residues 68-76 of HPV16 protein E6]
binding ratio to standard [3, 6]: 0.0056 | binding ratio to standard [2]: 0.0037

AVDLYHFLK [reference compound]
IC50 ([2]; read-out: 50% inhibition dose for the probe, unlabeled probe peptide): 9 nM

CCKCDSTLR [residues 58-66 of HPV16 protein E7]
binding ratio to standard [3, 6]: 0.0016 | binding ratio to standard [2]: 0.0110

CCRSSRTRR [residues 146-154 of HPV16 protein E6]
binding ratio to standard [3, 6]: 0.0020

CMSCCRSSR [residues 143-151 of HPV16 protein E6]
binding ratio to standard [3, 6]: 0.1800 | binding ratio to standard [2]: 0.0084

DTLEKLTNT [HPV18 peptide 8, residues 88-96 of HPV18 protein E6]
MF (mean HLA-A2.1 fluorescence) [1, 7]: 238.2 | FI (Fluorescence Index) [1, 8]: 0.7

EITCVYCKT [HPV18 peptide 4, residues 29-37 of HPV18 protein E6]
MF (mean HLA-A2.1 fluorescence) [1, 7]: 206.0 | FI (Fluorescence Index) [1, 8]: 0.5

ELQTTIHDI [HPV16 peptide 4, residues 25-33 of HPV16 protein E6]
MF (mean HLA-A2.1 fluorescence) [1, 4]: 108.0 | FI (Fluorescence Index) [1, 5]: 0.6

ELTEVFEFA [HPV18 peptide 6]
FI (Fluorescence Index) [1]: 1.1 | MF (mean HLA-A2.1 fluorescence) [1]: 289.0

FAFKDLFVV [HPV18 peptide 7, residues 47-55 of HPV18 protein E6]
MF (mean HLA-A2.1 fluorescence) [1, 7]: 462.9 | FI (Fluorescence Index) [1, 8]: 2.3

FQQLFLNTL [HPV18 peptide 11, residues 86-94 of HPV18 protein E7]
MF (mean HLA-A2.1 fluorescence) [1, 7]: 244.5 | FI (Fluorescence Index) [1, 8]: 0.8

GTLGIVCPI [HPV16 peptide 17, residues 85-93 of HPV16 protein E7]
MF (mean HLA-A2.1 fluorescence) [1, 4]: 216.1 | FI (Fluorescence Index) [1, 5]: 2.3

HLDKKQRFH [residues 125-133 of HPV16 protein E6]
binding ratio to standard [3, 6]: 0.4400

HYNIVTFCC [residues 51-59 of HPV16 protein E7]
binding ratio to standard [3, 6]: 0.0260 | binding ratio to standard [2]: 0.0010

IHDIILECV [HPV16 peptide 7, residues 30-38 of HPV16 protein E6]
MF (mean HLA-A2.1 fluorescence) [1, 4]: 150.7 | FI (Fluorescence Index) [1, 5]: 1.3

IILECVYCK [residues 33-41 of HPV16 protein E6]
binding ratio to standard [3, 6]: 1.5000 | binding ratio to standard [2]: 6.7000

ISEYRHYCY [residues 80-88 of HPV16 protein E6]
binding ratio to standard [3, 6]: 0.0064 | binding ratio to standard [2]: 0.4300

KCDSTLRLC [residues 60-68 of HPV16 protein E7]
binding ratio to standard [3, 6]: 0.0012

KFYSKISEY [residues 75-83 of HPV16 protein E6]
binding ratio to standard [3]: 0.0100

KLPDLCTEL [HPV18 peptide 1, residues 13-21 of HPV18 protein E6]
MF (mean HLA-A2.1 fluorescence) [1, 7]: 439.3 | FI (Fluorescence Index) [1, 8]: 2.1

KTVLELTEV [HPV18 peptide 5, residues 36-44 of HPV18 protein E6]
MF (mean HLA-A2.1 fluorescence) [1, 7]: 467.5 | FI (Fluorescence Index) [1, 8]: 2.3

LCTELQTTI [HPV16 peptide 3, residues 22-30 of HPV16 protein E6]
MF (mean HLA-A2.1 fluorescence) [1, 4]: 113.6 | FI (Fluorescence Index) [1, 5]: 0.7

LFLNTLSFV [HPV18 peptide 13, residues 89-97 of HPV18 protein E7]
MF (mean HLA-A2.1 fluorescence) [1, 7]: 360.3 | FI (Fluorescence Index) [1, 8]: 1.6

LLMGTLGIV [HPV16 peptide 16]
FI (Fluorescence Index) [1]: 0.8 | MF (mean HLA-A2.1 fluorescence) [1]: 118.8

LSFVCPWCA [HPV18 peptide 14, residues 94-102 of HPV18 protein E7]
MF (mean HLA-A2.1 fluorescence) [1, 7]: 262.0 | FI (Fluorescence Index) [1, 8]: 0.9

LTNTGLYNL [HPV18 peptide 9, residues 93-101 of HPV18 protein E6]
MF (mean HLA-A2.1 fluorescence) [1, 7]: 352.5 | FI (Fluorescence Index) [1, 8]: 1.5

PLCDLLIRC [HPV16 peptide 10, residues 102-110 of HPV16 protein E6]
MF (mean HLA-A2.1 fluorescence) [1, 4]: 204.8 | FI (Fluorescence Index) [1, 5]: 2.1

QLCTELQTT [HPV16 peptide 2, residues 21-29 of HPV16 protein E6]
MF (mean HLA-A2.1 fluorescence) [1, 4]: 211.9 | FI (Fluorescence Index) [1, 5]: 2.2

QLFLNTLSF [HPV18 peptide 12, residues 88-96 of HPV18 protein E7]
MF (mean HLA-A2.1 fluorescence) [1, 7]: 258.2 | FI (Fluorescence Index) [1, 8]: 0.8

QQYNKPLCD [residues 97-105 of HPV16 protein E6]
binding ratio to standard [3, 6]: 0.0045

RHYCYSLYG [residues 84-92 of HPV16 protein E6]
binding ratio to standard [3, 6]: 0.0036

RLCVQSTHV [HPV16 peptide 14, residues 66-74 of HPV16 protein E7]
MF (mean HLA-A2.1 fluorescence) [1, 4]: 250.0 | FI (Fluorescence Index) [1, 5]: 2.8

SLQDIEITC [HPV18 peptide 2, residues 24-32 of HPV18 protein E6]
MF (mean HLA-A2.1 fluorescence) [1, 7]: 243.9 | FI (Fluorescence Index) [1, 8]: 0.7

SLYGTTLEQ [residues 89-97 of HPV16 protein E6]
binding ratio to standard [3, 6]: 0.0080

TGRCMSCCR [residues 140-148 of HPV16 protein E6]
binding ratio to standard [2]: 0.0012

TIHDIILEC [HPV16 peptide 6, residues 29-37 of HPV16 protein E6]
MF (mean HLA-A2.1 fluorescence) [1, 4]: 184.5 | FI (Fluorescence Index) [1, 5]: 1.8

TLEDLLMGT [HPV16 peptide 15, residues 78-86 of HPV16 protein E7]
MF (mean HLA-A2.1 fluorescence) [1, 4]: 182.8 | FI (Fluorescence Index) [1, 5]: 1.8

TLQDIVLHL [HPV18 peptide 10]
FI (Fluorescence Index) [1]: 2.7 | MF (mean HLA-A2.1 fluorescence) [1]: 519.6

TTLEQQYNK [residues 93-101 of HPV16 protein E6]
binding ratio to standard [3, 6]: 0.0780

VCPICSQKP [residues 90-98 of HPV16 protein E7]
binding ratio to standard [2]: 0.0012

YMLDLQPET [HPV16 peptide 12, residues 11-19 of HPV16 protein E7]
MF (mean HLA-A2.1 fluorescence) [1, 4]: 283.9 | FI (Fluorescence Index) [1, 5]: 3.3

Source: patent US7364741B1, “Peptides of human Papilloma virus for use in human T cell response inducing compositions” (priority 1992, dated 2008)
